This is an account of results in the DeepSol protein solubility set.

A short description of the series: soluble on expression in E. coli; label from the status in PepcDB or PDB records.
As to “MKVELVFIPSPGVGHIRATTALAKLLVASDNRLSVTLIVIPSRVSDDASSSVYTNSEDRLRYILLPARDQTTDLVSYIDSQKPQVRAVVSKVAGDVSTRSDSRLAGIVVDMFCTSMIDIADEFNLSAYIFYTSNASYLGLQFHVQSLYDEKELDVSEFKDTEMKFDVPTLTQPFPAKCLPSVMLNKKWFPYVLGRARSFRATKGILVNSVADMEPQALSFFSGGNGNTNIPPVYAVGPIMDLESSGDEEKRKEILHWLKEQPTKSVVFLCFGSMGGFSEEQAREIAVALERSGHRFLWSLRRASPVGNKSNPPPGEFTNLEEILPKGFLDRTVEIGKIISWAPQVDVLNSPAIGAFVTHCGWNSILESLWFGVPMAAWPIYAEQQFNAFHMVDELGLAAEVKKEYRRDFLVEEPEIVTADEIERGIKCAMEQDSKMRKRVMEMKDKLHVALVDGGSSNCALKKFVQDVVDNVP”, the “soluble on expression in E. coli” value is listed as “soluble”.
To “DYSYLFGQGGTELFGEFAGAANGAVGTINGLRYTHPVGGSYMLVGRYIPADYWSYYRGAFARYSRPGNEWGVMGRAAWELPSDRTVRAFADYYGSFVPRFGRKEKTEALYWMFEGEKRLSALSWSCRIRGTADKRYRRSLAVRLRGRYMFDERWRLMASLQWSRSNSFDRELQTWQAPTGGKSFALRADYSGGKLLRVCSMDAVAFDTDSFADRLYEAVHNPRHHYSSAFFYGRGVRLGVFVRIAPLPQVEVESRIDHLLRRDTDTIGSAGELIRGQARTHLFMTVRYR” belongs “not soluble”; to “MSQTVHFQGNPVTVANVIPQAGSKAQAFTLVAKDLSDVSLSQYAGKRKVLNIFPSIDTGVCAASVRKFNQLATEVENTVVLCVSADLPFAQSRFCGAEGLSNVITLSTLRNNEFLKNYGVEIVDGPLKGLAARAVIVLDENDNVIFSQLVDEITHEPDYDAALNVLKA”, “not soluble”; to “STTGIIMENVTAFWEEGFGELLEKVQQSNGDRKHSSDENNVSFSHLCLVGNPVLKNINLNIEKGEMLAITGSTGSGKTSLLMLILGELEASEGIIKHSGRVSFCSQFSWIMPGTIKENIIFGVSYDEYRYKSVVKACQLQQDITKFAEQDNTVLGEGGVTLSGGQRARISLARAVYKDADLYLLDSPFGYLDVFTEEQVFESCVCKLMANKTRILVTSKMEHLRKADKILILHQGSSYFYGTFSELQSLRPDFSSKLMGYDTFDQFTEERRSSILTETLRRFSVDDSSAPWSKPKQSFRQTGEVGEKRKNSILNSFSSVRKISIVQKTPLCIDGESDDLQEKRLSLVPDSEQGEAALPRSNMIATGPTFPGRRRQSVLDLMTFTPNSGSSNLQRTRTSIRKISLVPQISLNEVDVYSRRLSQDSTLNITEEINEEDLKECFLDDVIKIPPVTTWNTYLRYFTLHKG”, “soluble”.
Next, “MTTRDLFADHAPADDRRIALGEAAVVLRGFALAEATALLAAIDDIARQAPFRHMVTPGGFEMSVALTNCGALGWTSDRRGYRYAARDPQTGQPWPPLPDCFLRLARDAAAAAGFPGFTPDACLINRYVPGARLSLHQDKDEQDYGAPIVSVSLGMPAMFLWGGHRRTDKTLRVPLFHGDVVVWGGPDRLRYHGVLPLKEAAHPLLGAQRINLTLRRAGLEHHHHHH”: “soluble”.
Next, “MNEEILPILTVKDLNAGYLTNEKYIGIIHNINIELNRGKIVGITGLSGSGKTTLLKSILLETHIKSGEIIFNGKPIMPGDTKNYRRSVIYVPQNSLDSLDIIWPIEDQVKKILKQHNVVYDINKVSEIAKLIDLDISMLKLKSFEVSYGTRHKIVLLMSILMAKRDLVVLMDEPTLSQDAITAEGILNIIVKLAKDYGSSFIIVSSSPEPVFYASDFIYIMYGGWIVENGTPNDLSKWPKHPFTYEFINMLPAHKTRDRFPKFPMTEFSENGCPYSIYCKNKIKGCDSHINMFGEGHKYRCLNPVV”: “not soluble”; “MMLSATQPLSEKLPAHGCRHVAIIMDGNGRWAKKQGKIRAFGHKAGAKSVRRAVSFAANNGIEALTLYAFSSENWNRPAQEVSALMELFVWALDSEVKSLHRHNVRLRIIGDTSRFNSRLQERIRKSEALTAGNTGLTLNIAANYGGRWDIVQGVRQLAEKVQQGNLQPDQIDEEMLNQHVCMHELAPVDLVIRTGGEHRISNFLLWQIAYAELYFTDVLWPDFDEQDFEGALNAFANRERRFGGTEPGDETA”: “soluble”.
Take “MTSPVPRLIEQFERGLDAPICLTWELTYACNLACVHCLSSSGKRDPGELSTRQCKDIIDELERMQVFYVNIGGGEPTVRPDFWELVDYATAHHVGVKFSTNGVRITPEVATRLAATDYVDVQISLDGATAEVNDAIRGTGSFDMAVRALQNLAAAGFAGVKISVVITRRNVAQLDEFATLASRYGATLRITRLRPSGRGTDVWADLHPTADQQVQLYDWLVSKGERVLTGDSFFHLAPLGQSGALAGLNMCGAGRVVCLIDPVGDVYACPFAIHDHFLAGNVLSDGGFQNVWKNSSLFRELREPQSAGACGSCGHYDSCRGGCMAAKFFTGLPLDGPDPECVQGHSEPALARERHLPRPRADHSRGRRVSKPVPLTLSMRPPKRPCNESPV”: the “soluble on expression in E. coli” value is recorded as “not soluble”.
For “MPLTPADVHNVAFNKPPIGKRGYNEDEVDQFLDLVEDALVQFQEENEDLKQQVEELEAQVAGGTSSAASSSTAGAATAAASKSVDEAALRKEIEEKLRSEYASKLDDASKAAQKAQNDAKSAQDQLQRAQADAKAARDEAEKAKAEAKSAASSSTTKAAAVGAVGAGTGAAVATGAANVDTHMQAAKVLGLAQEMADRLTSEARSESKSMLDEAREAAEKQIEEANSTSNRTLEDARANAEKQIAEAQNRADTLVNEADAKAKNLVSEAEKKSAATLAASTSRAEAQIRQAEDKANALQADAERKHTETMAAVKEQQNALETRIAELQTFEREYRTRLKSLLEGQLEELNARGSSAPTNNKPSGE”, the “soluble on expression in E. coli” value is listed as “not soluble”.
In the case of “NEDNSFTVRANMTYAVSKVVHWDQDAVRYPYQSYSDVNYGVMRGLVALGLFQNQDEINRSPKQTYGEVRPGDIRYKDVNADGKIDDDDIVPIAHSNVPQIQYGFALEYRYKRWTISALFTGAAKVNFLYGGSGFYPFSGGEVGNILSIVNDPKNRWTPAWYSGDPSTENPNARFPRLTYGENKNNNRASTFWLADGSYLRWKSLDISYRIGTNKVLRTVGISDMNLQFVGQNLAVWDSVKLWDPGQASKNGAVYPLQRTFSLQLTATF”, the “soluble on expression in E. coli” value was “not soluble”.
Regarding “MAHHHHHHMFPQGLIDQWLSKSREGRRSVREDRKATPAILDNIARLEEYCRSHPYDVFCASTLQHPPFALHALESEAAEQQRLAQPPPVFAATVPSPSAHTTASNEVRGGVCGRYADGDESRASVTAARQHLHNVAARLAAYLQSSGAVRSSASRHEEESQCTVVADFFVHLLSEAAVAAVYRQGIAAQVEAEERAAFQHRQSQRRLQLRVDSKHDGTLQRLELSDSKGADTEAVHEVEGLTVVRPIADYRRLSQGLASLWSLLAQTQRRGGLAVGGPSKERSRDSTADTDSVNDNDNLWTRVRVDCLRHWLGDRALPPPPPLPGTAALGETQRKTEASSPAMPGGAWWSRPLYISERDVEFALRKVLADVTASAAS”, the “soluble on expression in E. coli” value was “soluble”.
Consider “MGSDKIHHHHHHMTYSKQSEWREIQSYLPKKYHFTDNYHPTEEWWNWKGHEVHLDCFRNEKAPVKVILLHGVGTNGRQMSMILGGPLSKDGFETIAIDMPTYGVTKVKKGSVVKYDDWVDLACDYIDYEQQRDDRPIVLYGLSAGGMETYHVAAKNKKVKGIIGMTFLDQKNQQVRDETAKNLVMSRVGIPMAGIACNIGLENFKMKMSTASKMSALCNNEKVMEIFNRDKTSAANKASMRFLDSYGNYQPAMEPEDFDVCPILLTQPEQDKWTPLHLSTPFLNKIKKVDVKIVMLENGGHYPVEQPALDQMHDAIVEFIYKVTK”, for which the “soluble on expression in E. coli” value is on record as “not soluble”.
To “MQKTIYDVSFINGEVKTFTPLMLDNVMAEKELVARGGNIRENSIEFMAILTHKVCRRTYRENTPLDLDIFLESVLDIDTRVEEVTTFPEQNLDAHGPEPRHRT” belongs “not soluble”; to “MSLINLWPLLLPAAAWSGWWLANRSNSNKDAHVHNRLSREYVVGLNYLLNEQSDKAVDVFIKLLEVDSDTVETHLALGSLFRRRGEVDRAIRIHQNLIARPQLSIQQRKEALMALGQDYMSAGVFDRAERIFLEVVELGGSRDTSSLQGLLAIYQQEKAWEKALDIIKKLEISTGASFHNQAAHYYCEMASQALKINAMDRAIYCIKQAMNVDPESVRASLMNATIEIKEGRYKQAIRSLKRVPQQDAEFLTEIIEPLVLCHKELDSMPDCIHYLEQTLEKHPRASVIFVIADYLRQNKGMDIAIDFVADNLSKHPSIRGLNRLIYWHLESAHGKVREKLQMLYDITSKFLDNKPIYRCGHCGFGGKHLHWHCPSCKQWGRMKPIHGLEGDEGHHHHHH”, “not soluble”; to “MSLERLNKPSAPRYSRLREWVVGCAPNDLVVVKFGGSVLNGSPGFLAAGRLVLGLLESGLEPVVVVSAVKGVTDALLSSFERRDPGVGGAVGKTYLSIARELGLPPESVRDVSLASAEVSKLLWAAEVLGQWTPRVRDLVVSYGERLSAALMAGLLRRLGVEARWLGGGEAGIVTDGEFGDATPLYGYTEGVIRERLEPMLEEGVVPVVAGFTGATREGDTTLLGRGGSDLTATLLASALGAGRVVLYTDVPGILSGDPRVVGEPRRVGYMSYEEAWEVARLGLRKFHPRTFEPLIAGGLGVEVVVSDLRGRSTRIGPGRGGPPLKVVSLSRGVARLVVRGPSMAGKRGFLSRLAGLLAGRGVNILAIRQPPSETAIELVVDERDLPAAVEELGARSGAAGVRLEVERGFDVVSIVGWGAVEALPEALSAAEKTGGRLLSTGELSPSISILARGRTSPELARLLHRRVVESWVTGEGHHHHHH”, “not soluble”.
On to “ISEFDYSARFVLSDGKRKILRYPNPTNSLSSDVYYNGQILGDIWGYKTVGIAQTQEEMNAHLANGGTPNWGTNWGAGDVMYANLDGKEGVNNGSNTLEDHGDLTIIGNNTPRYNFGLTLTGAWKGFDFSVFLQGVMKRDYWLDGPYFWGANGGLWQSTAFKEHMDYWRPEGDPLGANTNAYYPKPYFNTDKNQKVQSGYLQNAAYCRLKNAQIGYTLPKTWTRKAAMESVRVYVSGDNLVTFSGISGVFDPELLGSDWGDGKLYPLQRTISIGLNVNF”, for which the “soluble on expression in E. coli” value is listed as “not soluble”.
Take “SQSLGDRQRDNEKIDKMQQILRSVNAGIEDKGKVIARYTDVIKQELLINQDGTVAKTFEGEQLAQNEAFTLNTRNAFKSAANDPSISLPLYIAEIEGQKK”: the “soluble on expression in E. coli” value was “not soluble”.
To “NDLVSFTLRGNASWNRDKIIENDEAPKPYPWMEKRGTNVFSQWGLIADGLFTSEEEIEKHATQFGQVYIGDIKYRDLNNDKKIDSNDICRIGQGTIPKYNYGFGFDVQIGYFSVSALFQGAADVTTCLSGNSIIPFSSQAGIDNLFDNIEDRWSPDDPTNEDVFYPRLHYGNSNNSNNYRASTWWLRNMDYLRLKQFNIAYNLPENTLKSVGVKGARIYLMGTNLLTFSKFKLWDPEVYSSNGAAYPNVMSCSLGVNFSF” belongs “not soluble”; to “GSHMLKEVWEELDGLDPNRFNPKTFFILHDINSDGVLDEQELEALFTKELEKVYDPKNEEDDMREMEEERLRMREHVMKNVDTNQDRLVTLEEFLASTQRKEF”, “soluble”.
To “MTRYLDISLGIVRDYYEAAPVKVVFVKDHPRLPTPGGIINARRGDEVELPRWQARMLREKGYVEYKEKIVDIDYVNLVHYHEVKKSAANSLLGVPSDFYLRVKELVEDLDRRIRENPGYMLFQDRENVERAIMQISERRLVKMMRLVLSGGGEEVRERLTVEENLVYSMAEEVVKGWKEYVKSLVGRR” belongs “not soluble”.
